Results from CN118005785A (BEILAI PHARMACEUTICAL CO LTD, dated 2024).

Columns and labels:
[1] = target: T1, Human IL-17A重组蛋白 (IL-17A-His) (human, UniProt Q16552 24-155, limits assumed, biotinylated in the ELISA of paragraph 276 (Biotin-IL-17A-His); site not stated); assay: ELISA, antibody coated at 2 ug/mL, Biotin-IL-17A-His titrated from 10 ug/mL, HRP-Streptavidin detection
T1 construct: Expressed in E. coli BL21 from pET28a and purified on a nickel column; also called IL-17A抗原蛋白; IL-17抗原
T1 sequence: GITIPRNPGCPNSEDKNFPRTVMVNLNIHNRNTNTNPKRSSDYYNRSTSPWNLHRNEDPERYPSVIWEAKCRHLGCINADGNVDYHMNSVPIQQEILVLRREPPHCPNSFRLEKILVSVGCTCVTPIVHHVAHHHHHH

[2] = target: T1, Human IL-17A重组蛋白 (IL-17A-His); assay: cell-based or functional assay
[3] = target: T1, Human IL-17A重组蛋白 (IL-17A-His); assay: BLI, ForteBio OCTET R2, IL-17A-His immobilised on the sensor at 5 ug/mL, antibody 50-3.13 nM, 25℃

EC50 [1]: 10.1 µg/mL | IC50, luciferase activity of 293F-IL-17RA-IL-17Rc-ACT1-NFκB-Luc reporter cells stimulated with 0.1 μg/mL IL-17A [2]: 2.23 nM | Kd [3]: 0.391 nM
B1: Ixekizumab (antibody, human IgG4 S228P, kappa, V domains shown)
VH: QVQLVQSGAEVKKPGSSVKVSCKASGYSFTDYHIHWVRQAPGQGLEWMGVINPMYGTTDYNQRFKGRVTITADESTSTAYMELSSLRSEDTAVYYCARYDYFTGTGVYWGQGTLVTVSS
VL: DIVMTQTPLSLSVTPGQPASISCRSSRSLVHSRGNTYLHWYLQKPGQSPQLLIYKVSNRFIGVPDRFSGSGSGTDFTLKISRVEAEDVGVYYCSQSTHLPFTFGQGTKLEIKR
notes: Made in-house in 293F cells from the synthesised variable regions cloned into hIgG4 and hIgKc vectors; purified on Protein A; also called 阳性对照抗体Ixekizumab; 阳性抗体
